The source of these data is paper PMC2789240, “Comparative structural, kinetic and inhibitor studies of Trypanosoma brucei trypanothione reductase with T. cruzi^” (Molecular and Biochemical Parasitology, 2010).

As a reminder, the Km is the concentration of substrate that gives half-maximal velocity. What is called kcat is the number of substrate molecules converted per active site and unit of time at saturation. By kcat/Km is commonly meant the turnover number divided by the Michaelis constant.

Substrate in series [1]: N[C@@H](CCC(=O)N[C@H]1CSSC[C@H](NC(=O)CC[C@H](N)C(=O)O)C(=O)NCC(=O)NCCCNCCCCNC(=O)CNC1=O)C(=O)O
Put plainly: 412 nm DTNB-coupled trypanothione reductase assay (IC50, Km). It is filed as biochemical, Trypanosoma cruzi. The note with it: other: saturating NADPH; pH 7.4; 25.0 °C.

Substrate in series [2]: N[C@@H](CCC(=O)N[C@H]1CSSC[C@H](NC(=O)CC[C@H](N)C(=O)O)C(=O)NCC(=O)NCCCNCCCCNC(=O)CNC1=O)C(=O)O
The series can be described thus: 340 nm NADPH oxidation trypanothione reductase assay. In kind it is biochemical, Trypanosoma cruzi. To be noted: other: 340 nm assay; pH 7.4; 25.0 °C. On the procedure:
TryR was assayed spectrophotometrically either by monitoring the trypanothione-dependent oxidation of NADPH at 340 nm, or by the reduction of 5,5′-dithio-bis(2-nitrobenzoic acid) (DTNB) at 412 nm (see Fig. 1B). Assays at 340 nm were carried out at 25 °C in 500 μl volume acrylic cuvettes and changes in absorbance monitored with a UV-1601 PC spectrophotometer (Shimadzu). The standard assay mixture contained 40 mM HEPES pH 7.4, 1 mM EDTA, ∼10 mU ml^−1 TryR, 150 μM NADPH and 100 μM T(S)2. Assays at 412 nm were carried out in 96-well plates (Polysorp, Nunc) at room temperature in a volume of 200 μl. Changes in absorbance were monitored in a SpectraMax 340pc plate reader (Molecular Devices). The standard assay mixture contained 40 mM HEPES pH 7.4, 1 mM EDTA, ∼10 mU ml^−1 TryR, 150 μM NADPH, 6 μM T(S)2 and 50 μM DTNB. All assays were initiated by addition of the T(S)2. Data was collected using SoftMax Pro (molecular devices) and UVProbe 2 (Shimadzu) software, processed and analysed using Excel 2002 (Microsoft) and GraFit 5 (Erithacus Software). NADPH stock solutions were measured spectrophotometrically at 340 nm using an absorption coefficient of 6.22 × 10^3 M^−1 cm^−1[16]. The concentration of T(S)2 stock solutions were determined by measuring the oxidation of NADPH in the presence of excess TryR.
Km values with respect to T(S)2 were determined for TbTryR in both assays using purified recombinant T. cruzi TryR for comparison. Determinations for each enzyme were carried out in three independent experiments and a weighted mean calculated.

B1: TcTryR (recombinant T. cruzi trypanothione reductase) (Trypanosoma cruzi) (protein)
chain: MMSKIFDLVVIGAGSGGLEAAWNAATLYKKRVAVIDVQMVHGPPFFSALGGTCVNVGCVPKKLMVTGAQYMEHLRESAGFGWEFDRTTLRAEWKKLIAVKDEAVLNINKSYEEMFRDTEGLEFFLGWGSLESKNVVNVRESADPASAVKERLETENILLASGSWPHMPNIPGIEHCISSNEAFYLPEPPRRVLTVGGGFISVEFAGIFNAYKPKDGQVTLCYRGEMILRGFDHTLREELTKQLTANGIQILTKENPAKVELNADGSKSVTFESGKKMDFDLVMMAIGRSPRTKDLQLQNAGVMIKNGGVQVDEYSRTNVSNIYAIGDVTNRVMLTPVAINEAAALVDTVFGTNPRKTDHTRVASAVFSIPPIGTCGLIEEVASKRYEVVAVYLSSFTPLMHNISGSKYKTFVAKIITNHSDGTVLGVHLLGDNAPEIIQGVGICLKLNAKISDFYNTIGVHPTSAEELCSMRTPSYYYVKGEKMEKPSEASL
notes: made in house
On to B1, for which the Km in series [1] is 10.4 ± 0.3 µM.

B2: TcTryR (Trypanosoma cruzi) (protein)
chain: MMSKIFDLVVIGAGSGGLEAAWNAATLYKKRVAVIDVQMVHGPPFFSALGGTCVNVGCVPKKLMVTGAQYMEHLRESAGFGWEFDRTTLRAEWKKLIAVKDEAVLNINKSYEEMFRDTEGLEFFLGWGSLESKNVVNVRESADPASAVKERLETENILLASGSWPHMPNIPGIEHCISSNEAFYLPEPPRRVLTVGGGFISVEFAGIFNAYKPKDGQVTLCYRGEMILRGFDHTLREELTKQLTANGIQILTKENPAKVELNADGSKSVTFESGKKMDFDLVMMAIGRSPRTKDLQLQNAGVMIKNGGVQVDEYSRTNVSNIYAIGDVTNRVMLTPVAINEAAALVDTVFGTNPRKTDHTRVASAVFSIPPIGTCGLIEEVASKRYEVVAVYLSSFTPLMHNISGSKYKTFVAKIITNHSDGTVLGVHLLGDNAPEIIQGVGICLKLNAKISDFYNTIGVHPTSAEELCSMRTPSYYYVKGEKMEKPSEASL
notes: made in house
With B2, in series [2], the Michaelis constant (Km) was 29.6 ± 2.8 µM, the kcat worked out at 77 ± 8 s⁻¹ and the kcat/Km was 2.6e+06 M⁻¹ s⁻¹.
